In PMC9605988, “Juxtaposition of Bub1 and Cdc20 on phosphorylated Mad1 during catalytic mitotic checkpoint complex assembly” (Nature Communications, 2022):
“Also recorded” adds a separate entry of the source. Like-named read-outs stand apart in the source and are kept apart here. One block for each molecule: values may come before it.

What was measured:
pMad1CTD = assay: 1H,15N HSQC / CON NMR titration with pMad1CTD; type: binding, human; conditions: peptide titration, 298 K
Experimental: (§1) Uniformly-labelled proteins were expressed in M9 minimal media (6 g/L Na2HPO4, 3 g/L KH2PO4, 0.5 g/L NaCl) supplemented with 1.7 g/L yeast nitrogen base without NH4Cl and amino acids (Sigma Y1251). 1 g/L ^15NH4Cl and 4 g/L unlabelled glucose were supplemented for ^15N labelling. For ^13C/ ^15N double-labelled samples, unlabelled glucose was replaced with 3 g/L ^13C-glucose. Prior to all NMR experiments, proteins were dialysed into 20 mM HEPES, pH 7.0, 100 mM NaCl and 1 mM TCEP.
(§2) The following protein concentrations were used in NMR studies: ^1H,^15N HSQC of Mad1^CTD were collected with a 100 µM sample, whereas a 50 µM sample was used for titrations with Cdc20^N and Cdc20^α1. Cdc20^Box1 peptide was added at mM concentrations to minimise dilution during titration. […] Mad1^CTD was concentrated to 3 mM for titrations into Cdc20^N. ^1H,^15N HSQC of Mad2 were collected at 100 µM. All Mad2 NMR samples contain an R133A mutation to prevent Mad2 dimerisation. The C-Mad2 sample additionally contains an L13A mutation which favours the C-Mad2 state. Cdc20^MIM-bound C-Mad2 sample was prepared by adding a 1:2 excess of Cdc20^MIM peptide to an O-Mad2 sample with R133A mutation. To follow the O-to-C conversion of Mad2, the samples were prepared on ice and monitored using BEST ^1H,^15N-TROSY HSQC. The spectra were acquired with 16 scans and a recycle delay of 400 msec, giving an experimental time of 12 min per spectrum.
(§3) Mad1^CTD and Mad2 experiments were performed using an in-house 800 MHz Avance III spectrometer and Cdc20^N experiments were performed using an in-house 700 MHz Avance II + spectrometer, both equipped with triple resonance TCI CryoProbes. To retrieve signals that suffer from exchange broadening, we also utilised the Bruker 950 MHz Avance III spectrometer located at MRC Biomedical NMR Centre (Francis Crick Institute). Mad1^CTD and Mad2 spectra were collected at 298 K. Cdc20^N spectra were collected at 278 K to minimise exchange broadening for the largely disordered Cdc20^N.
(§4) For binding studies, the relative peak intensities were normalised to the C-terminal residue Ala718 of Mad1^CTD or Gly73 of Cdc20^N and expressed as PIbound/PIfree, with PIfree and PIbound being the peak heights of the free and bound forms, respectively. Weighted chemical shift perturbations were calculated using the equation[63]: Δδ = [(ΔδHNWHN)^2 + (ΔδNWN)^2)^2]^1/2 where ΔδHN and ΔδN are the chemical shift perturbations in ^1H and ^15N dimensions respectively. The weight factors were determined from the average variances of chemical shifts in the BMRB database, where WHN = 1 and WN = 0.16.

[1] = molecular target: T1, Mad1CTD (unphosphorylated) (Homo sapiens, UniProt Q9Y6D9); assay: 1H,15N HSQC / CON NMR titration with unphosphorylated Mad1CTD; type: binding; conditions: peptide titration, 298 K
T1 construct: the C-terminal domain of Mad1 (residue 597–718); made in house
T1 sequence (Q9Y6D9 597-718): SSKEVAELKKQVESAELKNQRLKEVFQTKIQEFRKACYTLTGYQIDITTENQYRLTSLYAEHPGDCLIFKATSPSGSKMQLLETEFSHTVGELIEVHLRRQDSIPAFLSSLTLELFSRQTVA
Experimental: as §1
The following protein concentrations were used in NMR studies: ^1H,^15N HSQC of Mad1^CTD were collected with a 100 µM sample, whereas a 50 µM sample was used for titrations with Cdc20^N and Cdc20^α1. […] To follow the O-to-C conversion of Mad2, the samples were prepared on ice and monitored using BEST ^1H,^15N-TROSY HSQC. […]
as §4

O-Mad2 R133A = molecular target: T2, O-Mad2 R133A (Homo sapiens, UniProt Q13257, R133A); assay: NMR-monitored conversion of O-Mad2 to C-Mad2; type: biochemical; conditions: for O-Mad2 to C-Mad2 conversion: substoichiometric 2 µM Cdc20MIM (1:50) to 100 µM O-Mad2 R133A
T2 construct: made in house
T2 sequence (Q13257 whole entry R133A): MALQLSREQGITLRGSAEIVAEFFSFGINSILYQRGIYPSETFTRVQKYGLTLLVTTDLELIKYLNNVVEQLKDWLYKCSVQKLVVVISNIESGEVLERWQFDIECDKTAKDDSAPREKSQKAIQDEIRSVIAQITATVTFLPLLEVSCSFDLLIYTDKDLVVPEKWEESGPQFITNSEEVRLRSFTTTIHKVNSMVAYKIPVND
Experimental: as §2, §3

[2] = molecular target: the molecule itself; assay: SEC + SEC-MALS; Mad1:C-Mad2 tetramer re-purified by SEC after adding excess Mad2; hexamer formed with an excess of Mad2LL; homogeneity confirmed by SEC-MALS
[3] = molecular target: T3, preformed AF488-Bub1^CD1:pMad1^CTD complex (Mad1^CTD phosphorylated at Thr716) (UniProt Q9Y6D9 597-718, phosphothreonine at 716 (pThr716) | Aurora Fluor 488 (AF488) on the N-terminal Cys; phosphoserine (pSer459); phosphothreonine (pThr461)); assay: fluorescence polarisation; fluorescence anisotropy; Cdc20^N twofold series (100 μM to 6 nM, mixed 1:1) titrated into preformed AF488-Bub1^CD1:Mad1^CTD (20 nM: 2.1 µM); 25 mM HEPES pH 7.75, 1 mM TCEP, 100 mM NaCl, 0.05% Tween-20; 25 °C; conditions: both partners purified
T3 construct: Mad1 C-terminal domain (Mad1^CTD), residues 597-718; as m2; added N-terminal Cys (carries AF488) and Trp; as m7; Bub1 conserved domain 1 (CD1) peptide; source: mixed from purified pMad1^CTD and synthetic peptide (20 nM: 2.1 µM); copies: 2 + 1
T3 sequence 1: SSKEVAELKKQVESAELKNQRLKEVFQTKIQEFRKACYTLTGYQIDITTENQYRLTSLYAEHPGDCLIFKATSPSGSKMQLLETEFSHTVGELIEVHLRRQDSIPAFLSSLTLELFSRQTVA
T3 sequence 2: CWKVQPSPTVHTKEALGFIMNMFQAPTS

[4] = molecular target: T4, preformed AF488-Bub1^CD1:Mad1^CTD complex (Mad1^CTD unphosphorylated) (UniProt Q9Y6D9 597-718, Aurora Fluor 488 (AF488) on the N-terminal Cys; phosphoserine (pSer459); phosphothreonine (pThr461)); assay: as above; conditions: both partners purified
T4 construct: Mad1 C-terminal domain (Mad1^CTD), residues 597-718; as m1; added N-terminal Cys (carries AF488) and Trp; as m7; Bub1 conserved domain 1 (CD1) peptide; also called Mad1^CTD:AF488-Bub1^CD1 complex; source: mixed from purified Mad1^CTD and synthetic peptide (20 nM: 2.1 µM); copies: 2 + 1
T4 sequence 1: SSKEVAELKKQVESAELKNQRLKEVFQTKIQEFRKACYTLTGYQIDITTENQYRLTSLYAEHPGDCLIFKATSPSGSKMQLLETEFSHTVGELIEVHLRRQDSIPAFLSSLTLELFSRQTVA
T4 sequence 2: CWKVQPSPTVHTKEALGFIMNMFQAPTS

pMad1CTD (Mad1CTD pT716) = assay: SEC-MALS, Cdc20N with pMad1CTD; type: binding, human; conditions: 1:1.2 ratio Mad1CTD dimer to Cdc20N
Experimental: Size-exclusion chromatography coupled with multi-angle static light scattering (SEC-MALS), was performed using an Agilent 1200 series LC system with an online Dawn Helios ii system (Wyatt) equipped with a QELS + module (Wyatt) and an Optilab rEX differential refractive index detector (Wyatt). About 100 μl purified protein at ~3.0 mg/ml was auto-injected onto Superdex 75 or a Superdex 200 Increase 10/300 GL column (GE Healthcare) and run at 0.5 ml/min. The molecular masses were analysed with ASTRA 7.3.0.11 (Wyatt). Data were plotted using Prism 8.4.3 (GraphPad Software, Inc). Purified Cdc20^N and Cdc20^N mutants were incubated with Mad1^CTD wild-type or mutants at a 1:1.2 ratio of Mad1^CTD dimer to Cdc20^N.

Cdc20 = conditions: cited from earlier work
Excerpt: NMR spectroscopy was used to obtain structural insights into the Cdc20^N:Mad1^CTD interaction. Unlabelled Cdc20^N was titrated into either ^15N-labelled Mad1^CTD or pMad1^CTD (Fig. 2c, d and Supplementary Fig. 3a, b). […] Similar to Bub1^CD1, the interaction of Cdc20 α1 with Mad1^CTD would largely be driven by hydrophobic interactions (Fig. 4e). This model predicts that Gln3 and Glu7, and Asp9 of Cdc20 α1 interact with Arg617 and Lys619, respectively of the Mad1^CTD RLK motif (Fig. 4d). This is consi ...

Molecule: PPARWQRKAKEAA [Cdc20 Box1, Box1 motif peptide of Cdc20]
binding by NMR chemical shift perturbation (pMad1CTD): binds pMad1^CTD | binding by NMR chemical shift perturbation (pMad1CTD; listed as pMad1CTD:Cdc20Box1): appeared stronger than that between pMad1CTD:Cdc20α1 | binding by NMR chemical shift perturbation [1]: not Mad1^CTD

Molecule: O-Mad2: open Mad2 with R133A mutation to prevent dimerisation
time for O-Mad2 to C-Mad2 conversion (O-Mad2 R133A; absence of Cdc20MIM, peer review response): 24 h

Molecule: MAQFAFESDLHSLL [Cdc20 α1, N-terminal α1 helix peptide of Cdc20]
binding by NMR chemical shift perturbation (pMad1CTD): weak interaction; also recorded: weaker

B1: Mad1^485–718 (Mad1^485), unphosphorylated (domain or fragment, UniProt Q9Y6D9 485-718, looked up)
chain: SSAEQSFLFSREEADTLRLKVEELEGERSRLEEEKRMLEAQLERRALQGDYDQSRTKVLHMSLNPTSVARQRLREDHSQLQAECERLRGLLRAMERGGTVPADLEAAAASLPSSKEVAELKKQVESAELKNQRLKEVFQTKIQEFRKACYTLTGYQIDITTENQYRLTSLYAEHPGDCLIFKATSPSGSKMQLLETEFSHTVGELIEVHLRRQDSIPAFLSSLTLELFSRQTVA
notes: Mad1 residues 485-718; Construct His6-DoubleStrep-TEV-Mad1^485–718; two copies in the tetramer and hexamer with Mad2; also called Mad1 residues 485–718
binding result [2]: binds

B2: Mad1^485–718 phosphorylated by Mps1 (pMad1^485) (domain or fragment, UniProt Q9Y6D9 485-718, looked up)
chain: SSAEQSFLFSREEADTLRLKVEELEGERSRLEEEKRMLEAQLERRALQGDYDQSRTKVLHMSLNPTSVARQRLREDHSQLQAECERLRGLLRAMERGGTVPADLEAAAASLPSSKEVAELKKQVESAELKNQRLKEVFQTKIQEFRKACYTLTGYQIDITTENQYRLTSLYAEHPGDCLIFKATSPSGSKMQLLETEFSHTVGELIEVHLRRQDSIPAFLSSLTLELFSRQTVA
modifications: phosphothreonine at 716 (predominant); lower abundant phosphorylation at Thr500, Ser538, Thr540, Thr550 and Ser551
notes: Mad1 residues 485-718; Predominantly one phosphate per monomer by intact mass; also called phosphorylated Mad1^485; phosphorylated Mad1^485–718
binding result [2]: binds

B5: Q648A/R650A: mutation of the conserved QYRL motif within Mad1CTD, ref 33 (protein, UniProt Q9Y6D9 597-718, looked up, variant Q648A R650A)
chain: SSKEVAELKKQVESAELKNQRLKEVFQTKIQEFRKACYTLTGYQIDITTENAYALTSLYAEHPGDCLIFKATSPSGSKMQLLETEFSHTVGELIEVHLRRQDSIPAFLSSLTLELFSRQTVA
binding of Cdc20 to Mad1 mutant (Cdc20): impaired binding to Cdc20 | binding of Cdc20 to Mad1 mutant (Cdc20; listed as Q648A and R650A): impaired binding of Cdc20^N to Mad1

B6: Mad1^CTD RLK/AAA: Mad1CTD RLK/AAA (residues 617-619) mutant, ref 33 (protein, UniProt Q9Y6D9 597-718, looked up, variant R617A L618A K619A)
chain: SSKEVAELKKQVESAELKNQAAAEVFQTKIQEFRKACYTLTGYQIDITTENQYRLTSLYAEHPGDCLIFKATSPSGSKMQLLETEFSHTVGELIEVHLRRQDSIPAFLSSLTLELFSRQTVA
binding of Cdc20 to Mad1 mutant (Cdc20): abolished Cdc20 binding | binding of Cdc20 to Mad1 mutant (Cdc20; listed as RLK/AAA): impaired binding of Cdc20^N to Mad1

Now from value to molecule, other results behind:

O-Mad2 to C-Mad2 conversion (O-Mad2 R133A): cannot be achieved
Molecule: NLNGFDVEEAKILRLSGKPQNAPEGYQNRLKVLY [Cdc20^MIM]
O-Mad2 to C-Mad2 conversion (O-Mad2 R133A; listed as Cdc20MIM): The majority of Mad2 remains in an open state; also recorded: nearly all of Mad2 remains in an open state

Kd [3]: 23 µM | Kd [4]: 18 µM
B3: Cdc20^N RRK/SSS mutant (Arg27, Arg30, Lys31 to Ser) (domain or fragment, human, UniProt Q12834 1-73, looked up)
chain: MAQFAFESDLHSLLQLDAPIPNAPPASWQSSAKEAAGPAPSPMRAANRSHSAGRTPGRTPGKSSSKVQTTPSK
notes: human Cdc20, residues 1-73; The purification (with tag cleavage) is told for Cdc20^N; likely the same for the mutant; source: site-directed mutant of the Cdc20^N construct, purified

binding by SEC-MALS (pMad1CTD (Mad1CTD pT716)): abolished its interaction with pMad1^CTD
B4: Cdc20^N RRK/SSS: Cdc20N with Arg27, Arg30, Lys31 mutated to Ser (protein)
chain: MAQFAFESDLHSLLQLDAPIPNAPPASWQSSAKEAAGPAPSPMRAANRSHSAGRTPGRTPGKSSSKVQTTPSK
modifications: left off: His6, N-terminal, state not stated | MBP, N-terminal, state not stated
notes: Cdc20N with Arg27, Arg30, Lys31 mutated to Ser
